From paper PMC4055580, “Simplagrin, a Platelet Aggregation Inhibitor from Simulium nigrimanum Salivary Glands Specifically Binds to the Von Willebrand Factor Receptor in Collagen and Inhibits Carotid Thrombus Formation In Vivo” (PLoS Neglected Tropical Diseases, 2014)

Assays:
[1] = molecular target: Simplagrin (Simulium platelet aggregation inhibitor), recombinant (Simulium nigrimanum) (UniProt D1FQ14); test: SPR; kinetics: Simplagrin as ligand, RGQOGVMGF peptide as analyte (1-500 nM), 30 µL/min for 180 s, dissociation 600 s, global 1:1 model
[2] = molecular target: Simplagrin (Simulium platelet aggregation inhibitor), recombinant (Simulium nigrimanum) (UniProt D1FQ14); test: SPR; steady state: Simplagrin immobilised on CM5 (500 RU), soluble collagens as analyte, HBS-P; KD as the analyte concentration at 50% of saturation
[3] = molecular target: Soluble human collagen type I (human) (UniProt P02452); test: SPR; Simplagrin-CT with collagen type I and III; who was immobilised is not told in what was shown
[4] = molecular target: Soluble human collagen type III (human) (UniProt P02461); test: as above
[5] = molecular target: T1, Soluble human collagen type III (human, UniProt P02461 154-1221); test: SPR; kinetics: collagen type I or III immobilised on CM5 by amine coupling, Simplagrin as analyte (0.015-1 µM), 180 s contact at 30 µL/min, 25°C, HBS-P, 1:1 Langmuir model; settings: both partners purified
T1 construct: also called Collagen-III; collagen III; source: bought: R&D Systems
T1 sequence (looked up): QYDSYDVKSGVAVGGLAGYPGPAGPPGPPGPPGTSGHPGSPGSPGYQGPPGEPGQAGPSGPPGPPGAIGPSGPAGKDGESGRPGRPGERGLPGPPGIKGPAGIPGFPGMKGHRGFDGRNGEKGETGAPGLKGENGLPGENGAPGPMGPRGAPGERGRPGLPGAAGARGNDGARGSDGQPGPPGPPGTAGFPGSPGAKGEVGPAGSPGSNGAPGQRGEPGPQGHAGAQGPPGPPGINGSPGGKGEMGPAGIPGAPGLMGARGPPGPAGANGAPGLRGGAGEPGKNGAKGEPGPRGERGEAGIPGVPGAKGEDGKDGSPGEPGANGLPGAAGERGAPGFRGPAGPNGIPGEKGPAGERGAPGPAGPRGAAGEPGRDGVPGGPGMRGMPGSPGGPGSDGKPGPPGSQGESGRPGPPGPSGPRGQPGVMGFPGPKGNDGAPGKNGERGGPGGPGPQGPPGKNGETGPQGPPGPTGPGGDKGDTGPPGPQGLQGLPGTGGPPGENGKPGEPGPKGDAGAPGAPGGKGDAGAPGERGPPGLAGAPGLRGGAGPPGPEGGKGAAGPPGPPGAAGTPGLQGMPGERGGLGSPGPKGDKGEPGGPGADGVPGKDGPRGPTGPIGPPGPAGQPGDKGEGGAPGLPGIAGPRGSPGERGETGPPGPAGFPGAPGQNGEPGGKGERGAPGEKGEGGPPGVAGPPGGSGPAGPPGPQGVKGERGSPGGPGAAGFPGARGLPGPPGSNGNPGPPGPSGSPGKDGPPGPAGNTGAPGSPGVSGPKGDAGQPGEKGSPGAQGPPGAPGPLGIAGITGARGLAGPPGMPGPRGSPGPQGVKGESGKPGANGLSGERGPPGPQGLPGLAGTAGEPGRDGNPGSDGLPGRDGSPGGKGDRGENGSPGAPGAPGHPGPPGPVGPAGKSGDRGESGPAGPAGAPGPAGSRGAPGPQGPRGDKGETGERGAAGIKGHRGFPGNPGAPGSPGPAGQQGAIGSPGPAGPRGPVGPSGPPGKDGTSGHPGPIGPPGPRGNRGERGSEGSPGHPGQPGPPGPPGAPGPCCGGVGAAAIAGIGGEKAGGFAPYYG

[6] = molecular target: T1, Soluble human collagen type III; test: ELISA; blocking: collagen type III (0.3 µg/mL) coated, Simplagrin 0.0015-1.5 µM for one hour at 37°C, washed, then 3 nM vWF; detected with anti-human vWF; settings: both partners purified
[7] = molecular target: T2, Soluble human collagen type I (human, UniProt P02452 162-1218; P08123 80-1119); test: SPR; thermodynamics: Simplagrin (10-500 nM) over immobilised collagen type I or III at 15, 20, 25, 30, 35 and 40°C; 1:1 model, van't Hoff equation; settings: both partners purified
T2 construct: also called Collagen-I; Col-I; source: bought: R&D Systems

[8] = molecular target: T1, Soluble human collagen type III; test: as above; settings: both partners purified
[9] = molecular target: T2, Soluble human collagen type I; test: SPR; steady state: Simplagrin immobilised on CM5 (500 RU), soluble collagens as analyte, HBS-P; KD as the analyte concentration at 50% of saturation; settings: both partners purified
[10] = molecular target: Soluble human collagen type IV (human, UniProt P02462 173-1669; P08572 184-1712); test: as above; settings: both partners purified
[11] = molecular target: Soluble human collagen type VI (human, UniProt P12109 20-1028; P12110 21-1019; P12111 26-3177); test: as above; settings: both partners purified
[12] = molecular target: T1, Soluble human collagen type III; test: as above; settings: both partners purified
[13] = molecular target: T2, Soluble human collagen type I; test: SPR; kinetics: collagen type I or III immobilised on CM5 by amine coupling, Simplagrin as analyte (0.015-1 µM), 180 s contact at 30 µL/min, 25°C, HBS-P, 1:1 Langmuir model; settings: both partners purified

T2 sequence (P02452 162-1218, chain 1 of 2): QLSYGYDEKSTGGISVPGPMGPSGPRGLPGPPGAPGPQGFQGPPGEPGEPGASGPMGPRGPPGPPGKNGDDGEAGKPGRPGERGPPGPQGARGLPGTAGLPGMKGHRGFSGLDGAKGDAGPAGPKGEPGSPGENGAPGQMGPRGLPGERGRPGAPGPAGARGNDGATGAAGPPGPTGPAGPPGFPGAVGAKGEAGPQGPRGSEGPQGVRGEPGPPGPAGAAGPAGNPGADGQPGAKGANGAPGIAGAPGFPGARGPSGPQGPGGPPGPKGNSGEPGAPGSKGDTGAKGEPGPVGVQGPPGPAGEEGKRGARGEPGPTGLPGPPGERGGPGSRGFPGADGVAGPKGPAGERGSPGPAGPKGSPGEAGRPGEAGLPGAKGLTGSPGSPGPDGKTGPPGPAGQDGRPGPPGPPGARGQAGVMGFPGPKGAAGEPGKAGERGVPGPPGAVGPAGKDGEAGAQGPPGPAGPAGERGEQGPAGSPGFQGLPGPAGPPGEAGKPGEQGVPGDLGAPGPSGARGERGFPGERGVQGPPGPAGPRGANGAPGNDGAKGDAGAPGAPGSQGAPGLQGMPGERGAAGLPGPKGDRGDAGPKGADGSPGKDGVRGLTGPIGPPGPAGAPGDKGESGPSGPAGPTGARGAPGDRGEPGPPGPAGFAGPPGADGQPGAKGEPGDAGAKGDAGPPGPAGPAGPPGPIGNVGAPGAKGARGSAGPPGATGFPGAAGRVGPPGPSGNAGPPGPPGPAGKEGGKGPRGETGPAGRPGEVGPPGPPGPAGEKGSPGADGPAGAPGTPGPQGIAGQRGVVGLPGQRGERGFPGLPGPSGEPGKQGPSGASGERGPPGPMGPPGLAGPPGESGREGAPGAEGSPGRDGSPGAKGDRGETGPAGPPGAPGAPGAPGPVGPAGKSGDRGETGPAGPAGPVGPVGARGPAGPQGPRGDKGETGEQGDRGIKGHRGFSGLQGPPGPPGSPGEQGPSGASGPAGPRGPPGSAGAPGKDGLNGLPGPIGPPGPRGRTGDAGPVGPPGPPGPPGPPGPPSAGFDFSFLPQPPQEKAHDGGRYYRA
T2 sequence (P08123 80-1119, chain 2 of 2): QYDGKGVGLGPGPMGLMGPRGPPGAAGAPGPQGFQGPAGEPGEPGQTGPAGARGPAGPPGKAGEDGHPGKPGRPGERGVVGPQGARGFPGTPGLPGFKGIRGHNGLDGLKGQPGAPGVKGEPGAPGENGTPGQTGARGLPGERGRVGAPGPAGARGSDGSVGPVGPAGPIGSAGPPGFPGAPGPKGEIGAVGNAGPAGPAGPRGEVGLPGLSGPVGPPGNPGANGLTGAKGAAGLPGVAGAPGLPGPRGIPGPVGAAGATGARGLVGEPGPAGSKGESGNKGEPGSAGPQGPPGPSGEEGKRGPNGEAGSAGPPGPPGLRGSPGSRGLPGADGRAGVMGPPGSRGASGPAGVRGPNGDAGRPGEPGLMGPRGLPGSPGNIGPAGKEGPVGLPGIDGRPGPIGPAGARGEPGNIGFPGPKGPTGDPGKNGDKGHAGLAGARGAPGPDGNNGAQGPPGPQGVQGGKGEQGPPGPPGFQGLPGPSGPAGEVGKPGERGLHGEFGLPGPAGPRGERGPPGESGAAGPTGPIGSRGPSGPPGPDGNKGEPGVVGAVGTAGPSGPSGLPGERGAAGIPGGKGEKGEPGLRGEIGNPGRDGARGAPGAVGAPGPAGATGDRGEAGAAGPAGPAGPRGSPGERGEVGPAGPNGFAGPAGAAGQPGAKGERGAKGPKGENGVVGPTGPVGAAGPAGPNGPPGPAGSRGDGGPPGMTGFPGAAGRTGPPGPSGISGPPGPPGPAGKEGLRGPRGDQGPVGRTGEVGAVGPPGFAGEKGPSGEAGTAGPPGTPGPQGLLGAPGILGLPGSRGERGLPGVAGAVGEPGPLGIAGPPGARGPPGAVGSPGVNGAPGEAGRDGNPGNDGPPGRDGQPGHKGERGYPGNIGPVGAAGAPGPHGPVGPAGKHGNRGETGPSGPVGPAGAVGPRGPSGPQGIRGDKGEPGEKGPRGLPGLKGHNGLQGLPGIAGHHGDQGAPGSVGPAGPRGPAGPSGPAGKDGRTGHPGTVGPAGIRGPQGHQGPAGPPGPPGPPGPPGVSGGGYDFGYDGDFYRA
Sequence of Soluble human collagen type I (human) (P02452 162-1218, chain 1 of 2): as the sequence (P02452 162-1218, chain 1 of 2) above
Sequence of Soluble human collagen type I (human) (P08123 80-1119, chain 2 of 2, further chain): as the sequence (P08123 80-1119, chain 2 of 2) above

For “RGQOGVMGF collagen-derived peptide (vWF-recognition peptide)”, the Kd [1] was 11.1 nM, the koff [1] was 0.00048 s⁻¹ and the kon [1] was 727000 M⁻¹ s⁻¹.

Molecule “Soluble human collagen type V (from UniProt P20908 38-1605; P05997 27-1229) (natural protein)” has a Kd [2] of 10.8 nM.

In the case of “Collagen type I from rat tail (from UniProt P02454 23-1207; P02466 86-1125) (natural protein)”, the Kd [2] is reported as 12.4 nM.

For “Simplagrin carboxy-terminus domain (Simplagrin-CT) (domain or fragment)”, the Kd [3] was 285 nM and the Kd [4] was 162 nM.

B1: Simplagrin (Simulium platelet aggregation inhibitor), recombinant (natural protein, Simulium nigrimanum, UniProt D1FQ14 21-286, looked up)
chain: SPIPDEESEETEDAEQEEDAEEEEHAEEEAQEDGDQTQDTDQESDDGQEETANQGSDEQQEEDGSHGTDETDDEAAGSRTEDVESGGDEQNDGEENGSQENGEEVTGGEDDSHGAQDSEGGEEDAAAQEAGGKKSKGKGAKGGQGSNRAGSSSGGEESAAHTYQEVMRILNGIKINAKEPLKSRLVNGLQYLKVDTINRVENIQKFSRIEHCFGNLDHIVQLYAGDAVERNDYCKGTCIDMVSNEFRGQMEELTSRLYPCLQGGYY
notes: Simplagrin (cluster Sim-50), salivary gland protein of Simulium nigrimanum; precursor of 286 aa with a predicted signal peptide of 20 aa; the construct holds the mature protein and a 6X-His tag before the stop codon; Synthetic codon optimised gene in the VR2001 TOPO vector; also called Sim-50; recombinant Simplagrin; source: FreeStyle293 F (HEK293) cells, transfected, secreted; purified (Ni2+ …)
In the case of B1, the Kd [5] is reported as 2.1 nM, the koff [5] is reported as 0.00031 s⁻¹ and the kon [5] is reported as 148000 M⁻¹ s⁻¹. For the same molecule, the IC50 [6] was ~100 nM, the dH [7] was -4.54 kcal/mol and the dH [8] was -12.9 kcal/mol. It also gave a Kd [9] of 10.3 nM, a Kd [10] of 27.6 nM and a Kd [11] of 23.3 nM. For the same molecule, the Kd [12] was 9.72 nM and the Kd [13] was 5.51 nM.
